Test results published in publication PMC4138078 (2014).
Ends that are not written are not given here.

B1: iCAL36 P-1 Tfa-K (peptide)
chain: ANSRWPTSKI
B2: iCAL36 P-1 BB-K (peptide)
chain: ANSRWPTSKI
B3: iCAL36 P-4 Ac-K (peptide)
chain: ANSRWK(Ac)TSII
B4: iCAL36 P-1 FB-K (peptide)
chain: ANSRWPTSKI
B5: iCAL36 P-3 Ac-K (peptide)
chain: ANSRWPK(Ac)SII
B6: iCAL36 P-1 Ac-K (peptide)
chain: ANSRWPTSK(Ac)I
B7: iCAL36 P-5 Ac-K (peptide)
chain: ANSRK(Ac)PTSII

What follows are binders tested against T1, CAL (CFTR-associated ligand) PDZ (Homo sapiens, UniProt Q9HD26) (assay: ITC).

Binder	Kd [µM]
B1	34.5
B2	20.7
B3	49.4
B4	12.8
B5	91.9
B6	26.4

Each binder was assayed against T1, CAL (CFTR-associated ligand) PDZ (assay: SPR).

Binder	Kd [µM]
B1	22.3
B2	20
B3	64.6
B4	27.9
B7	298
B5	122
B6	39.5
